The target of test [1] is T1, FUBP1-interacting repressor (FIR) (human, UniProt Q9UHX1-2 1-542).
T1 chain: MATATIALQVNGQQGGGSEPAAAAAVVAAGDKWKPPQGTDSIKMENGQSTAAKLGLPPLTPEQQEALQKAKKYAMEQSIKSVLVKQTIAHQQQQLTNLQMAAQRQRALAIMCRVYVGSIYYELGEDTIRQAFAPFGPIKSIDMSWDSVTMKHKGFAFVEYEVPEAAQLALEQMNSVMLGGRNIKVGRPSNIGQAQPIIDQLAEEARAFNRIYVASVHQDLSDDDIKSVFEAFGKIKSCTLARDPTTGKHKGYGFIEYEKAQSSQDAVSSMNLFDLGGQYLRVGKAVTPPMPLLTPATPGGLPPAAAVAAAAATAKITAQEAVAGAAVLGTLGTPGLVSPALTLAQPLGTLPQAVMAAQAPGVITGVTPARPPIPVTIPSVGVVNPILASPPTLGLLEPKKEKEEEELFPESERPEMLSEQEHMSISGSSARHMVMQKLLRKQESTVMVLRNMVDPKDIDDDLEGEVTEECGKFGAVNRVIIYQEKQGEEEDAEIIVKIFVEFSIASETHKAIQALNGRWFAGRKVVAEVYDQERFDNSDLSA
As to the kind of experiment: ITC; second step of two-step fit, 30°C, pH 7.2. For orientation: Isothermal titration calorimetry measures the heat released or taken up as one component is titrated into another.

For test [2], the target named is T1, FUBP1-interacting repressor (FIR). The test is described as follows: ITC; first step of two-step fit, 30°C, pH 7.2.
In test [3] the target is T2, FUBP1-interacting repressor (FIR) (human, UniProt Q9UHX1-2 1-542).
T2 construct: also called FIR wild; wild FIR
T2 sequence (looked up): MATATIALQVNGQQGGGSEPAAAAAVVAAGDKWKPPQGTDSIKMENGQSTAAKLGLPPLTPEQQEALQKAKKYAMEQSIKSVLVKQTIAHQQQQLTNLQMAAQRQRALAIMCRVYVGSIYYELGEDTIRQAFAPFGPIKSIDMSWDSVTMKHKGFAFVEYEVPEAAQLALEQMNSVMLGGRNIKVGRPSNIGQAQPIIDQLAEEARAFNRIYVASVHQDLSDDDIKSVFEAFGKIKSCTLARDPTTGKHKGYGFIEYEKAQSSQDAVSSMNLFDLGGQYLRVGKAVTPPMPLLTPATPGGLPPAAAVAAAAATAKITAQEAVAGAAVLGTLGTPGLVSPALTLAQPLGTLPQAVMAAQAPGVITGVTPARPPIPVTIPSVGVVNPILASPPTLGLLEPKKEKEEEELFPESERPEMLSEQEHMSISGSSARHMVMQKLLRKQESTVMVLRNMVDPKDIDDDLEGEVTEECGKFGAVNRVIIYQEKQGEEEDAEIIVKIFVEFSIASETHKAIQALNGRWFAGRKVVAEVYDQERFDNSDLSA
The test is described as follows: ITC; MicroCal VP-ITC, 30 °C, 50 mM phosphate buffer pH 7.2; cell: 4 μM wild FIR or 14.5 μM FIR∆exon2; syringe: 44 or 145 μM TFIIH p62 PH domain; 25 injections of 10 μL. As to conditions: both partners purified.

B1: TFIIH p62 PH domain (domain or fragment, UniProt P32780 1-108, looked up)
chain: MATSSEEVLLIVKKVRQKKQDGALYLMAERIAWAPEGKDRFTISHMYADIKCQKISPEGKAKIQLQLVLHAGDTTNFHFSNESTAVKERDAVKDLLQQLLPKFKRKAN
notes: pleckstrin homology (PH) domain of the P62 subunit of transcription factor IIH; also called P62 of TFIIH; P62 subunit of TFIIH
As for B1, the Ka in test [1] came to 2.3e+06 M⁻¹; in test [2], 1.9e+07 M⁻¹; in test [3], 2.34e+07 M⁻¹.
